Measurements: publication PMC3918441

Biological target: KDM5B PHD1 finger (wild type) (human)
Test: other fluorescence titration

H3K4me0 peptide (aa 1-12 of H3) (from UniProt P68431 2-13)
Kd: 1500 nM
